Target: kcru_mouse Ckmt1 (UniProt P30275)

effect of a mutation on the interaction: increasing interaction
Substance: Leucine-rich repeat serine/threonine-protein kinase 2 (Homo sapiens), Q5S007 G2019S
